By Kd is commonly meant a measure of binding affinity in units of concentration.

Test [1] concerns the target T1, Mouse IL-18BP (amino acids 31-194), biotinylated (mouse, UniProt Q9Z0M9 29-193, biotin on the AviTag (BirA ligase)).
T1 construct: also called mIL-18BP
T1 sequence: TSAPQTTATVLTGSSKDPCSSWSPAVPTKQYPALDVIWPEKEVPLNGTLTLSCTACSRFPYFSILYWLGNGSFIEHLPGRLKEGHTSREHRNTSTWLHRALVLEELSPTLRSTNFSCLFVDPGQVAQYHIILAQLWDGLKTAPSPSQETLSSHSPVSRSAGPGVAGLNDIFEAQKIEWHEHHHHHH
Description: SPR; KD(IL-18BP)/KD(IL-18Rα) normalized to WT IL-18. (In general: In SPR one partner is held on a chip, and binding of the other changes the refractive index at the surface.)

Test [2] has as its target T1, Mouse IL-18BP (amino acids 31-194), …. Description: on-yeast binding isotherms; 10 µM used for NBD; yeast-displayed variant; ratio computed with 10 µM put in for NBD. As to the method: (§1) Individual colonies of IL-18 yeast were grown overnight at 30° C. in SDCAA liquid media and induced in SGCAA liquid media for 1 day at 20° C. IL-18 display levels on yeast were verified by flow cytometry using an anti-cMyc tag antibody (anti-myc-PE; Cell Signaling Technologies). Receptor staining with biotinylated IL-18Rα (with or without IL-18R β) or biotinylated IL-18BP was performed in PBS supplemented with 0.5% BSA and 2 mM EDTA (PBE) on ice. All analysis was performed on a Sony SA3800 flow cytometer.

For test [3] the target is unchanged. Description: yeast binding isotherms and SPR; members per FIG. 11A legend. As to the method:
as §1
(§2) Experiments were conducted using a Biacore T100 and carried out at 25° C. Biotinylated IL-18Rα or IL-18BP were immobilized onto a Biacore biotin capture chip (Series S CAP sensor chip, GE Healthcare) to yield an Rmax of ˜50 RU (IL-18Rα) or ˜10 RU (IL-18BP). Measurements were made with serial dilutions of the IL-18 variants in HEPES buffered Saline-P+buffer (10 mM HEPES pH 7.4, 150 mM NaCl, 0.005% surfactant P20). The surface was regenerated by three 60-sec injections of regeneration buffer (3/4 (v/v) 8M guanidine hydrochloride with 1/4 (v/v) 1M sodium hydroxide). Experiments were performed in multiple channels simultaneously for increased observations. All data were analyzed with the Biacore T100 evaluation software version 2.0 with a 1:1 Langmuir binding model.

The target is the same in test [4]. Description: SPR, immobilized biotinylated mIL-18BP, mCS2 as analyte; traces stay at or below about 2 RU during the injection (0 to about 180 s) on a 0-40 RU axis. The method, then: as §2
The target in test [5] is T2, Mouse IL-18Rα ectodomain (amino acids 19-329), biotinylated (mouse, UniProt Q61098 19-329, biotin on the AviTag (BirA ligase)).
T2 construct: range 19-329; Secreted from Expi293 cells (H7 signal peptide removed); also called mIL-18Rα; mIL18Ra
T2 sequence: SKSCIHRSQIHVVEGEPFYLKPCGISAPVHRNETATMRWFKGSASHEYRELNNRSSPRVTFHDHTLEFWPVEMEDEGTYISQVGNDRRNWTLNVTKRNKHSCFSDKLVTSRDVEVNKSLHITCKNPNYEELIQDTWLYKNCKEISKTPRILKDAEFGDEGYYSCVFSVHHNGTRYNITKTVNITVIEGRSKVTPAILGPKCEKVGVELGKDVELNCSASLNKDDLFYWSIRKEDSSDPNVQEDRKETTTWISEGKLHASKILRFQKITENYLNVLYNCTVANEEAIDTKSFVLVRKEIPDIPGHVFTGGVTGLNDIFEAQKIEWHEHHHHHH
Description: on-yeast binding isotherm (flow cytometry). The method, then:
as §1

For test [6], the target named is T1, Mouse IL-18BP (amino acids 31-194), …. Description: on-yeast binding isotherms; KD ratio relative to WT IL-18; yeast-displayed variant; ratio normalized to WT, from the 10 µM placeholder. As to the method:
as §1

Test [7] shares this target. Description: SPR; KD for IL-18BP over KD for IL-18Rα; SPR; ratio of two measured KD. As to the method: as §2
The target is the same in test [8]. Description: SPR; KD ratio relative to WT IL-18; SPR; ratio normalized to WT. As to the method:
as §2

Test [9] deals with T2, Mouse IL-18Rα ectodomain (amino acids …). Description: SPR (Biacore T100), receptor captured via biotin, IL-18 as analyte. As to the method:
as §2

Test [10] has the same target. Description: SPR.
Test [11] deals with T1, Mouse IL-18BP (amino acids 31-194), …. Description: SPR (Biacore T100), IL-18BP captured via biotin, IL-18 as analyte; SPR, soluble variant. The method, then:
as §2

B1: SEQ ID NO: 61 (murine DR-IL-18 variant mCS2) (ligand)
chain: HFGRLHCTTAVIRNINDQVLFVDKRQPVFEDMTDIDQSASEPQTRLIIYAYGDSRARGKAVTLSVKDSKMSTLSCKNKIISFEEMDPPENIDDIQSDLIFFQKRVPGHNKMEFESSLYEGHFLACQKEDDAFKLILKKKDENGDKSVMFTLTNLHQS
notes: Engineered variant
In the case of B1, the “IL-18 BP:Rα Dissociation Constant Ratio” value in test [1] is above 7.5e+07. The “KD ratio IL-18BP/IL-18Rα” value was above 885 in [2] and 133000 in [7]. The Kd is above 1000 nM in [3]; above 10000 nM in test [4]; 11.3 nM in [5]; 0.079 nM in test [9]; 0.08 nM in test [10]; 10500 nM in [11]. The “Dissociation Constant Ratio normalized to WT IL-18” value in test [6] was above 4690; in test [8], 7.25e+07.
